In article PMC9388692, “Nuclear import of PTPN18 inhibits breast cancer metastasis mediated by MVP and importin β2” (Cell Death & Disease, 2022):

Experiments:
His-tagged importin β2 = biological target: T1, His-tagged importin β2 (UniProt Q92973 1-898); test: pull-down; GST pull-down of GST-tagged PTPN18 and its NLS mutants with His-tagged importin β2; purified proteins, in vitro; conditions: both partners purified
T1 construct: source: purified proteins
T1 sequence (looked up): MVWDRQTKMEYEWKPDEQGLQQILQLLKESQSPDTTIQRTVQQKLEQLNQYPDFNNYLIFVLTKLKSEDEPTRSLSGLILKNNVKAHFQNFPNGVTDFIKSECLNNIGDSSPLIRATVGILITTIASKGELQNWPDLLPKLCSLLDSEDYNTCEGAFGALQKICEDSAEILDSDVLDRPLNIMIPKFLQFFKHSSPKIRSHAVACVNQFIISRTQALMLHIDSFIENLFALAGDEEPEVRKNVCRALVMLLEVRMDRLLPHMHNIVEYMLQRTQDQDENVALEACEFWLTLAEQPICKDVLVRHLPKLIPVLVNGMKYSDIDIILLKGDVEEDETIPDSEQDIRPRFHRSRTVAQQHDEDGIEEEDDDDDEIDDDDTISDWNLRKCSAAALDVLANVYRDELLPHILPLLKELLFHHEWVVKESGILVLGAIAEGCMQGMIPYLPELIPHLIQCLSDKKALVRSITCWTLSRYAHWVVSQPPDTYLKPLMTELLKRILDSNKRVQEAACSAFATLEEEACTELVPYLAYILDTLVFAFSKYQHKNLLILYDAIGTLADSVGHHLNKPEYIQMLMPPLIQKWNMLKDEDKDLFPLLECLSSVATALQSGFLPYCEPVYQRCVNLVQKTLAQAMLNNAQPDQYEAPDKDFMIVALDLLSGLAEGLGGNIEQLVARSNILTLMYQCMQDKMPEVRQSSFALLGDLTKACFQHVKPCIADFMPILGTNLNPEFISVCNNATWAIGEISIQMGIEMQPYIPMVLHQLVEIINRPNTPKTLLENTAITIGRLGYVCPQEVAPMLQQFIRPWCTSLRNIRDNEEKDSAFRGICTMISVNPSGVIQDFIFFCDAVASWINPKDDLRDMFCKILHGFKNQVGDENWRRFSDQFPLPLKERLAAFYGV

His-tagged MVP = biological target: T2, His-tagged MVP (UniProt Q14764 1-893); test: pull-down; GST pull-down with GST-tagged PTPN18 and His-tagged MVP; called a direct interaction, in vitro; conditions: both partners purified
T2 construct: MVP, His-tagged, for GST pull-down
T2 sequence (Q14764 whole entry): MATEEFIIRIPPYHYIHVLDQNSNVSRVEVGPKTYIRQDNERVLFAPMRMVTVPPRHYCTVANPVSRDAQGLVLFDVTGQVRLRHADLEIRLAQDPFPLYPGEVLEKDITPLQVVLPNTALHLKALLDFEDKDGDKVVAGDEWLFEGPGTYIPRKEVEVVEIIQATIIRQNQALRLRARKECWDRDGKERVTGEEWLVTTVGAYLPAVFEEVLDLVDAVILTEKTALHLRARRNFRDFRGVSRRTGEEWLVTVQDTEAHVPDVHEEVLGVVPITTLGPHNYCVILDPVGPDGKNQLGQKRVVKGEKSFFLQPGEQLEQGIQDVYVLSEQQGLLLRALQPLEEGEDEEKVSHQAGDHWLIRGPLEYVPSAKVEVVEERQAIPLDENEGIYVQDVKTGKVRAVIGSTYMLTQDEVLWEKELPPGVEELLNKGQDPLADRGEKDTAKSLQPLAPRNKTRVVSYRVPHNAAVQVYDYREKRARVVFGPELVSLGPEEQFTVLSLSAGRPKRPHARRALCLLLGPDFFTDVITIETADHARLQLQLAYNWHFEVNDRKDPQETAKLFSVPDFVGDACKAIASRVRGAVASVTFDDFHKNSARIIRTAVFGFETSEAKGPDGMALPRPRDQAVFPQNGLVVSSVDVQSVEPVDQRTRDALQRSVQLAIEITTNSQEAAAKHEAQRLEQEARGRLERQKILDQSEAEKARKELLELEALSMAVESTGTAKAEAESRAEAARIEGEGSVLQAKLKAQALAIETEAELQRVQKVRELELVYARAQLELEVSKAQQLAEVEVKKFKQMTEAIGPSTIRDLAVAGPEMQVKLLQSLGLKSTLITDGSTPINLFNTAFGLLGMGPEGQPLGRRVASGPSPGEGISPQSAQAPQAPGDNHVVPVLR

- binding result (His-tagged importin β2): binds
- binding result (His-tagged MVP): binds
B1: GST-tagged PTPN18 (natural protein, UniProt Q99952 1-460, looked up)
chain: MSRSLDSARSFLERLEARGGREGAVLAGEFSDIQACSAAWKADGVCSTVAGSRPENVRKNRYKDVLPYDQTRVILSLLQEEGHSDYINGNFIRGVDGSLAYIATQGPLPHTLLDFWRLVWEFGVKVILMACREIENGRKRCERYWAQEQEPLQTGLFCITLIKEKWLNEDIMLRTLKVTFQKESRSVYQLQYMSWPDRGVPSSPDHMLAMVEEARRLQGSGPEPLCVHCSAGCGRTGVLCTVDYVRQLLLTQMIPPDFSLFDVVLKMRKQRPAAVQTEEQYRFLYHTVAQMFCSTLQNASPHYQNIKENCAPLYDDALFLRTPQALLAIPRPPGGVLRSISVPGSPGHAMADTYAVVQKRGAPAGAGSGTQTGTGTGTGARSAEEAPLYSKVTPRAQRPGAHAEDARGTLPGRVPADQSPAGSGAYEDVAGGAQTGGLGFNLRIGRPKGPRDPPAEWTRV
notes: PTPN18 wild type, GST-tagged, for GST pull-down; also called PTPN18 WT; source: purified proteins
